Source: patent US20140105889A1 (published 2014)
Positions count from the first letter of the chain named. Names and notes keep the numbering of the source. Each block holds one binder with its values, some of them ahead of it.

What was measured:
[1] = target: T1, human FcRn (human); assay: SPR (Biacore), pH 7.0, 25 C, antibody captured by Protein L, human FcRn as analyte
T1 construct: also called hFcRn; soluble human FcRn complexed with β2-microglobulin
Protocol: A kinetic analysis of binding between human FcRn and the aforementioned antibodies was carried out using the Biacore T100 or T200 (GE Healthcare). The antibodies being tested were captured on the CM4 Sensor Chip (GE Healthcare) on which a suitable amount of Protein L (ACTIGEN) was suitably immobilized by amine coupling. Next, diluted human FcRn and a running buffer used as a blank were injected to allow the human FcRn to interact with the antibody captured on the sensor chip. A buffer consisting of 50 mmol/L sodium phosphate, 150 mmol/L NaCl and 0.05% (w/v) Tween 20 (pH 7.0 or pH 7.4) was used for the running buffer, and each buffer was also used to dilute the human FcRn. 10 mmol/L glycine-HCl (pH 1.5) was used to regenerate the sensor chip. All measurements of binding were carried out at 25° C. The KD(M) of each antibody to human FcRn was calculated based on kinetics parameters, i.e., the association rate constant ka (1/Ms) and the dissociation rate constant kd (1/s) calculated from a sensorgram obtained by the measurement. The Biacore T100 or T200 Evaluation Software (GE Healthcare) was used to calculate each parameter.

[2] = target: T2, human FcγRIIb (human, UniProt P31994 43-217, limits assumed); assay: ratio of this variant's SPR KD for FcγRIIaH to its KD for FcγRIIb
T2 construct: also called FcγIIB; hFcgRIIb
T2 sequence: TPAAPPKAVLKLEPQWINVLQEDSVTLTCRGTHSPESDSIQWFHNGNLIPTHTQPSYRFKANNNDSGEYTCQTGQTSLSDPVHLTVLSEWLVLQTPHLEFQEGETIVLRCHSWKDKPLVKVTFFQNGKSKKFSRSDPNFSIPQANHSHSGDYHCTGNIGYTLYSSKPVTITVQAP
Description: (§1) Furthermore, KD(IIaR)/KD(IIb) and KD(IIaH)/KD(IIb) in the table respectively represent the value obtained by dividing the KD value of each variant for FcγRIIaR by the KD value of each variant for FcγRIIb, and the value obtained by dividing the KD value of each variant for FcγRIIaH by the KD value of each variant for FcγRIIb.

[3] = target: T2, human FcγRIIb; assay: SPR KD for FcγRIIb of parent IL6R-B3/IL6R-L divided by that of this variant
Description: as §1

[4] = target: T3, human FcγRIIa type H (human, UniProt P12318 36-217); assay: SPR (Biacore), captured antibody, FcγR as analyte, 25 C
T3 construct: also called FcγRIIaH; FcγRIIa(H)
T3 sequence: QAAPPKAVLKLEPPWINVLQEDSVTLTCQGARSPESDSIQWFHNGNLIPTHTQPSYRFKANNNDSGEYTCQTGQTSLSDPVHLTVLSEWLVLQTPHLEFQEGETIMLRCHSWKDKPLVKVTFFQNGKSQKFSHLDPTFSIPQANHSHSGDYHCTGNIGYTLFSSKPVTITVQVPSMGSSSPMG
Description: as §1

[5] = target: T2, human FcγRIIb; assay: ratio of this variant's SPR KD for FcγRIIaR to its KD for FcγRIIb
Description: as §1

[6] = target: T2, human FcγRIIb; assay: SPR (Biacore), captured antibody, FcγR as analyte, 25 C
Description: as §1

[7] = target: T4, FcγRIIb (human, UniProt P31994 43-217, limits assumed); assay: ratio of SPR KD values of this variant (FcγRIIaH over FcγRIIb)
T4 construct: also called FcγIIB; FcgRIIb
T4 sequence: T2 sequence
Description: as §1

[8] = target: T5, FcγRIIa type H (human, UniProt P12318 36-217); assay: SPR (Biacore), captured antibody, FcγR as analyte, method of Example 14
T5 construct: also called FcγRIIaH; FcγRIIa(H)
T5 sequence: T3 sequence

[9] = target: T4, FcγRIIb; assay: ratio of SPR KD values of this variant (FcγRIIaR over FcγRIIb)
Description: as §1

[10] = target: T4, FcγRIIb; assay: ratio of SPR KD values; parent polypeptide is IL6R-B3/IL6R-L
Description: as §1

[11] = target: T6, FcγRIa (human, UniProt P12314 16-292, limits assumed); assay: SPR (Biacore), captured antibody, FcγR as analyte, method of Example 14
T6 construct: also called CD64; FcgRIa
T6 sequence (P12314 16-292 limits assumed): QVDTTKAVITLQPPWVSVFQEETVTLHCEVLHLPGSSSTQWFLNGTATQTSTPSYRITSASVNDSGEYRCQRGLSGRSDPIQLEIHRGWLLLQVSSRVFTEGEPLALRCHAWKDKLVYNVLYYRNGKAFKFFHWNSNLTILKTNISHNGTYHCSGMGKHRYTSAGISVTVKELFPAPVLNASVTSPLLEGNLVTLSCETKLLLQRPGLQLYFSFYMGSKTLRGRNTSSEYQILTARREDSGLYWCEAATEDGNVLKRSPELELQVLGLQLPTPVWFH

[12] = target: T7, FcγRIa (human, UniProt P12314 16-292, limits assumed); assay: SPR (Biacore), antibody captured on chip, FcγR as analyte, method of Example 14
T7 construct: Soluble analyte in Biacore; also called FcgRIa; CD64
T7 sequence (P12314 16-292 limits assumed): as above

[13] = target: T8, FcγRIIa type R (human, UniProt P12318 36-217); assay: as above
T8 construct: Soluble analyte in Biacore; also called FcγRIIaR; FcγRIIa(R)
T8 chain: T3 sequence with H133R

[14] = target: T9, FcγRIIb (human, UniProt P31994 43-217, limits assumed); assay: as above
T9 construct: Soluble analyte in Biacore; also called FcgRIIb; FcγIIB
T9 sequence: T2 sequence

[15] = target: T10, FcγRIIa type H (human, UniProt P12318 36-217); assay: as above
T10 construct: Soluble analyte in Biacore; also called FcγRIIaH; FcγRIIa(H)
T10 sequence: T3 sequence

[16] = target: T9, FcγRIIb; assay: SPR (Biacore); ratio against the parent IL6R-B3/IL6R-L
Protocol: Next, interaction between these antibodies and FcγR was analyzed kinetically using the Biacore T100 (GE Healthcare). The interaction was measured at a temperature of 25° C. using HBS-EP+ (GE Healthcare) for the running buffer. The Series S Sensor Chip CM5 (GE Healthcare) was used after immobilizing Protein A by amine coupling. […] Antibody captured on the chip was washed by allowing 10 mM glycine-HCl (pH 1.5) to react following measurement. The chip regenerated in this manner was used repeatedly. The dissociation constant KD (mol/L) was calculated from the association rate constant ka (L/mol/s) and dissociation rate constant kd (1/s) as calculated by global-fitting the measurement results with a 1:1 Langmuir binding model using the Biacore

[17] = target: T4, FcγRIIb; assay: SPR (Biacore), captured antibody, FcγR as analyte, method of Example 14
[18] = target: T11, FcγRIIIa type V (human, UniProt P08637 17-208, limits assumed); assay: as above
T11 construct: also called FcγRIIIaV; FcγRIIIa(V)
T11 sequence (P08637 other isoform, or with tags, fused parts or gaps limits assumed): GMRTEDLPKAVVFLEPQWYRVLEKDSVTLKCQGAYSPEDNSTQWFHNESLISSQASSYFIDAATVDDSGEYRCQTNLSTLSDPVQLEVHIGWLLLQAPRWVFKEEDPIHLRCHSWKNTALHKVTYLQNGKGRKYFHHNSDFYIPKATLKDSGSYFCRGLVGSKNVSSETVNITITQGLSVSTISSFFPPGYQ

[19] = target: T12, human FcγRIIb (human, UniProt P31994 43-217); assay: SPR (Biacore); KD of parent IL6R-B3/IL6R-L for FcγRIIb divided by KD of the variant for FcγRIIb
T12 construct: also called FcγIIB
T12 sequence: T2 sequence
Description: as §1

[20] = target: T12, human FcγRIIb; assay: SPR (Biacore), antibody captured on the chip, FcγR as analyte
[21] = target: T13, human FcγRIIa type R (allotype R131) (human, UniProt P12318 36-217); assay: as above
T13 construct: also called FcγRIIaR; FcγRIIa(R)
T13 chain: T3 sequence with H133R

[22] = target: T14, human FcγRIa (human, UniProt P12314 16-292, limits assumed); assay: as above
T14 construct: also called CD64
T14 sequence (P12314 16-292 limits assumed): as the sequence (P12314 16-292 limits assumed) above

[23] = target: T15, human FcγRIIa type H (allotype H131) (human, UniProt P12318 36-217); assay: as above
T15 construct: also called FcγRIIaH; FcγRIIa(H)
T15 sequence: T3 sequence

[24] = target: T16, human FcγRIIIa(F) (human, UniProt P08637 17-208, limits assumed); assay: SPR (Biacore), captured antibody, FcgR as analyte, HBS-EP+, 25 C; bound amount corrected for captured antibody, relative to GpH7-G1d/GpL16-k0
T16 construct: also called hFcgRIIIa(F); allotype F158
T16 sequence (P08637 other isoform, or with tags, fused parts or gaps limits assumed): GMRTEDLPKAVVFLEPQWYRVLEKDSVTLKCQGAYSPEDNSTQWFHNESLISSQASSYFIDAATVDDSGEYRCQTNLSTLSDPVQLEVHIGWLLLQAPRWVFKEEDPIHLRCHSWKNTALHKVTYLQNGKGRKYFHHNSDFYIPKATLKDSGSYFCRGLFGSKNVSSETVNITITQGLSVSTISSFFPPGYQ
Protocol: (§2) Interaction between each modified antibody and Fcγ receptor prepared in the manner described above was analyzed using the Biacore T100 (GE Healthcare), Biacore T200 (GE Healthcare), Biacore A100 or Biacore 4000. HBS-EP+ (GE Healthcare) was used for the running buffer, and measurements were carried out at 25° C. The chips used were chips in which antigen peptides, Protein A (Thermo Scientific), Protein A/G (Thermo Scientific) or Protein L (ACTIGEN or BioVision) were immobilized on the Series S Sensor Chip CM5 (GE Healthcare) or Series S Sensor Chip CM4 (GE Healthcare) by amine coupling, or chips in which preliminarily biotinylated antigen peptides were allowed to interact and then immobilized on the Series S Sensor Chip SA (certified) (GE Healthcare). The target antibodies were captured on these sensor chips, Fcγ receptor diluted with the running buffer was allowed to interact, followed by measurement of the amount of bound antibody. The amounts bound were compared between antibodies. However, since the amount of Fcγ receptor bound depends on the amount of captured antibody, the values used for comparison were first corrected by dividing the amount of Fcγ receptor bound by the captured amount of each antibody. Through reaction with 10 mM glycine-HCl at pH 1.5, the sensor chips were regenerated by washing off antibody captured on the sensor chips and used repeatedly.

[25] = target: T17, human FcγRIIIa(F) (human, UniProt P08637 17-208, limits assumed); assay: SPR (Biacore), captured antibody, FcγR analyte; bound/captured amount vs control x100
T17 construct: also called FcgRIIIaF; FcγRIIIa allotype F158
Protocol: as §2

KD (IIaH)/KD (IIb) [7]: 89.9
Kd [8]: 5400 nM
KD (IIaR)/KD (IIb) [9]: 13
KD(IIb) of the parent polypeptide/KD(IIb) of the altered polypeptide [10]: 53.1
B4: IL6R-BP149/IL6R-L (antibody, human IgG1)
heavy: QVQLQESGPGLVKPSETLSLTCAVSGHSISHDHAWSWVRQPPGEGLEWIGFISYSGITNYNPSLQGRVTISRDNSKNTLYLQMNSLRAEDTAVYYCARSLARTTAMDYWGEGTLVTVSSASTKGPSVFPLAPSSKSTSGGTAALGCLVKDYFPEPVTVSWNSGALTSGVHTFPAVLQSSGLYSLSSVVTVPSSSLGTQTYICNVNHKPSNTKVDKKVEPKSCDKTHTCPPCPAPDYLGDDSVFLFPPKPKDTLMISRTPEVTCVVVDVSHEDPEVKFNWYVDGVEVHNAKTKPREEQDNSTYRVVSVLTVLHQDWLNGKEYKCKVSNAALPKPIEKTISKAKGQPREPQVYTLPPSRDELTKNQVSLTCLVKGFYPSDIAVEWESNGQPENNYKTTPPVLDSDGSFFLYSKLTVDKSRWQQGNVFSCSVMHEALHNHYTQESLSLSP
light: DIQMTQSPSSLSASVGDRVTITCRASQDISSYLNWYQQKPGKAPKLLIYYTSRLHSGVPSRFSGSGSGTDFTFTISSLQPEDIATYYCQQGNTLPYTFGQGTKVEIK
notes: EU numbering

Kd [12]: 59 nM
Kd [13]: 1700 nM
Kd [14]: 120 nM
Kd [15]: 9200 nM
KD(IIb) of the parent polypeptide/KD(IIb) of the altered polypeptide [16]: 26.2 fold
B6: IL6R-BP214/IL6R-L (antibody, human IgG1)
heavy: B4 heavy with A328D
light: B4 light
notes: Anti-human IL-6 receptor IgG1 Fc variant

KD (IIaH)/KD (IIb) [7]: 191
Kd [17]: 64 nM
Kd [8]: 1600 nM
Kd [18]: 55000 nM
KD (IIaR)/KD (IIb) [9]: 16.7
B7: IL6R-BP179/IL6R-L (antibody, human IgG1)
heavy: B4 heavy with D235E, Y236L, P273G, D298Y
light: B4 light
notes: EU numbering

KD(IIb) of the parent polypeptide/KD(IIb) of the altered polypeptide [19]: 91.2
Kd [20]: 34 nM
Kd [21]: 630 nM
Kd [22]: 33 nM
Kd [23]: 4200 nM
B8: IL6R-BP200/IL6R-L (antibody, human IgG1)
heavy: B4 heavy with P273G, D298Y, A328D, K332R
light: B4 light
notes: Anti-human IL-6 receptor human IgG1 variant; uncertain; copies: 2 + 2

Further lines, the binder ahead of its results:

B1: F1113 (antibody, name in EU numbering)
heavy: QVQLQESGPGLVKPSETLSLTCAVSGHSISHDHAWSWVRQPPGEGLEWIGFISYSGITNYNPSLQGRVTISRDNSKNTLYLQMNSLRAEDTAVYYCARSLARTTAMDYWGEGTLVTVSSASTKGPSVFPLAPSSKSTSGGTAALGCLVKDYFPEPVTVSWNSGALTSGVHTFPAVLQSSGLYSLSSVVTVPSSSLGTQTYICNVNHKPSNTKVDKKVEPKSCDKTHTCPPCPAPELLGGPSVFLFPPKPKDTLYISRTPEVTCVVVDVSHEDPEVKFNWYVDGVEVHNAKTKPREEQYNSTYRVVSVLTVLHQDWLNGKEYKCKVSNKALPAPIEKTISKAKGQPREPQVYTLPPSRDELTKNQVSLTCLVKGFYPSDIAVEWESNGQPENNYKTTPPVLDSDGSFFLYSKLTVDKSRWQQGNVFSCSVMHEALHYHVTQKDLSLSP
light: not shown
notes: copies: 2 + 2
Kd [1]: 118 nM

B2: IL6R-BP084/IL6R-L (antibody, human IgG1)
heavy: B4 heavy with D235E, Y236L, D239G, D298Y, V325M, A328K
light: B4 light
notes: copies: 2 + 2
KD (IIaH)/KD (IIb) [2]: 47.6
KD(IIb) of the parent polypeptide/KD(IIb) of the altered polypeptide [3]: 5.1
Kd [4]: 2400 nM
KD (IIaR)/KD (IIb) [5]: 14.3

B3: IL6R-BP132/IL6R-L (antibody, human IgG1)
heavy: B4 heavy with Y236L, D239G, D298Y
light: B4 light
notes: copies: 2 + 2
KD (IIaH)/KD (IIb) [2]: 61.1
KD(IIb) of the parent polypeptide/KD(IIb) of the altered polypeptide [3]: 6.4
Kd [6]: 270 nM
KD (IIaR)/KD (IIb) [5]: 21.5

B5: IL6R-BP180/IL6R-L (antibody, human IgG1)
heavy: B4 heavy with D235E, Y236L, P273G, D298Y, A328K
light: B4 light
notes: EU numbering
KD (IIaH)/KD (IIb) [7]: 290
Kd [8]: 1600 nM
Kd [11]: 96 nM
KD (IIaR)/KD (IIb) [9]: 18.6

B9: GpH7-B3/GpL16-k0 (antibody, human IgG1)
heavy: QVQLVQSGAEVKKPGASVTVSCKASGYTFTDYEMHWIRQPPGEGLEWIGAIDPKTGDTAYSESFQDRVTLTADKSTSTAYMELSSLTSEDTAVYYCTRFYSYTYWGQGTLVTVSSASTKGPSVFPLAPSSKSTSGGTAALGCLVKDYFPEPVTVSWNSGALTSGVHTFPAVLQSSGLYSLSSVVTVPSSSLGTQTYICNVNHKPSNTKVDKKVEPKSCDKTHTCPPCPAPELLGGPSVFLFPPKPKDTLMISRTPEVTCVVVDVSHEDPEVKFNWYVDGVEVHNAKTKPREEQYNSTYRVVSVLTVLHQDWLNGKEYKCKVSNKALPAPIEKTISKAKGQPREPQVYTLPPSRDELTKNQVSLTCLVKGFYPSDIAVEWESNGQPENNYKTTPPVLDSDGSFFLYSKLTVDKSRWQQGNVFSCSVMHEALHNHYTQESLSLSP
light: DIVMTQSPLSLPVTPGEPASISCQASESLVHSNRNTYLHWYLQKPGQSPQLLIYKVSNRFSGVPDRFSGSGSGTDFTLKISRVEAEDVGVYYCSQNTHVPPTFGQGTKVEIE
notes: Anti-glypican-3 antibody, human IgG1 constant region B3
relative binding activity (bound amount / bound amount of GpH7-G1d/GpL16-k0 x 100) [24]: 88

B10: GpH7-B3 D265S/GpL16-k0 (antibody, human IgG1)
heavy: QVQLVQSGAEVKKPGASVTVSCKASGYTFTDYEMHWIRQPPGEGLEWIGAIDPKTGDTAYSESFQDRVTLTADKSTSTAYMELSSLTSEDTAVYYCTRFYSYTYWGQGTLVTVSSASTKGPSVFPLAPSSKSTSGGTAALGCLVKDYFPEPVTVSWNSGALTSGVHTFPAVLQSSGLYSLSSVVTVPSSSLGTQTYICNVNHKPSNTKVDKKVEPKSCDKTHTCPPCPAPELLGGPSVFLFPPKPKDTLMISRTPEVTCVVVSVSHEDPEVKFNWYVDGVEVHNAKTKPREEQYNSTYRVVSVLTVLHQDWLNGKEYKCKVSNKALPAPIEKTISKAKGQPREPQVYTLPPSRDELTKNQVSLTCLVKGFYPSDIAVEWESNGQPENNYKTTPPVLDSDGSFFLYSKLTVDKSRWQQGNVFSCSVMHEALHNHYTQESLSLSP
light: B9 light
notes: B3 variant of anti-glypican-3 IgG1; substitution in EU numbering; also called B3 variant
relative binding activity [25]: 2 % of GpH7-B3/GpL16-k0
